Test results: the supplement of paper PMC9732359
± gives the uncertainty stated by the source.

Assay: protein stability index of a GFP-peptide fusion (yeast GPS) (PSI 1-4); higher = more stable; sorted into four equal gates, so the index is relative within each strain
In short: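 Tiled yeast protein peptides of 17 residues were each joined downstream of GFP, on plasmids that also express Cherry. The pooled library was maintained in yeast, and mid-log cultures in leucine-free medium were sorted into four equal gates on the GFP/Cherry ratio. Plasmids from every gate were amplified by PCR and sequenced on Illumina, with barcodes linking reads to strains. The protein stability index of a peptide is its gate-number-weighted read frequency summed over the gates.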

Row | Sequence | protein stability index (doa10∆) | protein stability index (pdr5∆) | protein stability index (san1∆) | protein stability index (ubr1∆)
1 | SGHDDLVHDVVYDFYGR [YGL100W/SEH1] | 2.49 ± 0.068 | 2.75 ± 0.067 | 2.39 ± 0.089 | 2.5 ± 0.065
2 | SGKARICIVGGYDDFQE [FAS2] | 2.91 ± 0.15 | 2.24 ± 0.1 | 3.36 ± 0.11 | 1.56 ± 0.17
3 | SGMGPDYRVLVDKSRKV [PRE8] | 3 ± 0.14 | 2.21 ± 0.19 |  | 2.98 ± 0.24
4 | SGQTPVQSKARYTVRTF [RPL11A] | 2.29 ± 0.094 | 2.06 ± 0.081 | 1.72 ± 0.13 | 1.71 ± 0.089
5 | SHDKKTKCSTVVKASEL [SRP14] | 3.02 ± 0.18 | 3.46 ± 0.22 | 3.05 ± 0.17 | 3.33 ± 0.11
6 | SHSLALNEITNSKVNKL [DSN1] | 2.33 ± 0.04 | 2.57 ± 0.04 | 2.48 ± 0.035 | 2.54 ± 0.033
7 | SHTDQPANVLLVQSLND [NNF1] | 2.07 ± 0.071 | 2.16 ± 0.083 | 2.23 ± 0.18 | 2.7 ± 0.09
8 | SIFAMGLCGAGTNNARL [RPN1] | 2.44 ± 0.058 | 1.27 ± 0.043 | 1.24 ± 0.094 | 1.12 ± 0.039
9 | SIFEDAIKELNYNRIAK [NUT1] | 2.79 ± 0.13 | 3.12 ± 0.19 | 3.07 ± 0.075 | 2.92 ± 0.12
10 | SIGSDILTAEKMRGNGN [RRP4] | 3.21 ± 0.097 | 3.39 ± 0.09 | 3.38 ± 0.05 | 3.32 ± 0.062
11 | SIIGNKNNNYTWEECVF [REC8] | 2.78 ± 0.15 | 2.62 ± 0.23 | 2.73 ± 0.085 | 2.43 ± 0.11
12 | SILDDIKLSLKDKTKNI [SMC4] | 2.88 ± 0.06 | 2.94 ± 0.059 | 2.8 ± 0.06 | 3 ± 0.062
13 | SILEEKIAVLNNDKREI [SMC1] | 3.21 ± 0.071 | 3.38 ± 0.057 | 3.25 ± 0.051 | 3.33 ± 0.061
14 | SILGKFCPIVEEIVSNS [YCS4] | 1.95 ± 0.091 | 1.51 ± 0.12 | 1.6 ± 0.14 | 1.55 ± 0.066
15 | SIMPDLYFYRNPEEVEQ [RPS0B] | 2.86 ± 0.082 | 2.95 ± 0.077 | 2.94 ± 0.063 | 2.85 ± 0.06
16 | SIMVELKLPLEINYAFS [SIR3] | 1.31 ± 0.077 | 1.64 ± 0.064 | 1.55 ± 0.12 | 1.5 ± 0.058
17 | SINGGIVVAMTGKDCVA [PUP3] |  | 2.39 ± 0.21 |  | 
18 | SIPNLFPTDLEIFQLFT [SWI1] | 2.6 ± 0.14 | 2.22 ± 0.12 | 2.27 ± 0.12 | 3.09 ± 0.19
19 | SIVEECDARFDEKTIEE [RPC17] | 2.98 ± 0.14 | 3.05 ± 0.088 | 3.09 ± 0.11 | 2.68 ± 0.21
20 | SIVHINSQERVQDLGSA [SIR2] | 2.65 ± 0.069 | 3.14 ± 0.064 | 2.99 ± 0.067 | 2.59 ± 0.048
21 | SKALLREISNFSKGDAD [SRP72] | 3.06 ± 0.26 | 3.41 ± 0.21 |  | 3.77 ± 0.2
22 | SKAQQKTAEQVAAERAA [RPL7A] | 2.84 ± 0.064 | 2.88 ± 0.052 | 2.74 ± 0.054 | 2.68 ± 0.049
23 | SKASMQKEQNVNNRDSE [YCS4] | 2.78 ± 0.069 | 2.98 ± 0.067 | 2.05 ± 0.076 | 2.77 ± 0.042
24 | SKDGLPNKVKTEDIRIR [RRP6] | 2.67 ± 0.063 | 2.91 ± 0.076 | 2.76 ± 0.067 | 2.73 ± 0.046
25 | SKDVQQIDYKLESFQAV [RPS7A] | 2.89 ± 0.053 | 3.06 ± 0.059 | 3.08 ± 0.054 | 3.07 ± 0.038
26 | SKEDYETLKRDRKQSQA [ARP7] | 2.79 ± 0.071 | 2.9 ± 0.098 | 2.57 ± 0.093 | 2.6 ± 0.065
27 | SKEETVDFIKHSLSQAI [PRE3] | 2.56 ± 0.065 | 2.65 ± 0.063 | 2.66 ± 0.056 | 2.7 ± 0.053
